# B1: GpH7-B3 variant H268_20W/GpL16-k0 (antibody, human IgG1, kappa)
# heavy: not shown
# light: DIVMTQSPLSLPVTPGEPASISCQASESLVHSNRNTYLHWYLQKPGQSPQLLIYKVSNRFSGVPDRFSGSGSGTDFTLKISRVEAEDVGVYYCSQNTHVPPTFGQGTKVEIERTVAAPSVFIFPPSDEQLKSGTASVVCLLNNFYPREAKVQWKVDNALQSGNSQESVTEQDSKDSTYSLSSTLTLSKADYEKHKVYACEVTHQGLSSPVTKSFNRGEC
# notes: also called Ho Ab H268_20W
# B2: GpH7-B3 variant K334_10E/GpL16-k0 (antibody, human IgG1, kappa)
# heavy: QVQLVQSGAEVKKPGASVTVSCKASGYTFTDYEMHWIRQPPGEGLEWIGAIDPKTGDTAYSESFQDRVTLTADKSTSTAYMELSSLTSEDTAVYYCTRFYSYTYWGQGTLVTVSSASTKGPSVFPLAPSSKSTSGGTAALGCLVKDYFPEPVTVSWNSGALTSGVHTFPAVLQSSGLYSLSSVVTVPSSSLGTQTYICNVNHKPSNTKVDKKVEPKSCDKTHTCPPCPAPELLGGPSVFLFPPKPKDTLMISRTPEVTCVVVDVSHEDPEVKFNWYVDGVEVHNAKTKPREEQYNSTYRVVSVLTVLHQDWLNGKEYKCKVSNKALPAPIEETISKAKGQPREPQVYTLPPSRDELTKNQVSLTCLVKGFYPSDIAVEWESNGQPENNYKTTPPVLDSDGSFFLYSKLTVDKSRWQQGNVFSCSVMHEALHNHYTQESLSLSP
# light: B1 light
# notes: also called Ho Ab K334_10E
# B3: GpH7-B3 variant I336_18N/GpL16-k0 (antibody, human IgG1, kappa)
# heavy: not shown
# light: B1 light
# notes: also called Ho Ab I336_18N
# B4: GpH7-B3 variant K326_16H/GpL16-k0 (antibody, human IgG1, kappa)
# heavy: not shown
# light: B1 light
# notes: also called Ho Ab K326_16H
# B5: GpH7-B3 variant K326_12R/GpL16-k0 (antibody, human IgG1, kappa)
# heavy: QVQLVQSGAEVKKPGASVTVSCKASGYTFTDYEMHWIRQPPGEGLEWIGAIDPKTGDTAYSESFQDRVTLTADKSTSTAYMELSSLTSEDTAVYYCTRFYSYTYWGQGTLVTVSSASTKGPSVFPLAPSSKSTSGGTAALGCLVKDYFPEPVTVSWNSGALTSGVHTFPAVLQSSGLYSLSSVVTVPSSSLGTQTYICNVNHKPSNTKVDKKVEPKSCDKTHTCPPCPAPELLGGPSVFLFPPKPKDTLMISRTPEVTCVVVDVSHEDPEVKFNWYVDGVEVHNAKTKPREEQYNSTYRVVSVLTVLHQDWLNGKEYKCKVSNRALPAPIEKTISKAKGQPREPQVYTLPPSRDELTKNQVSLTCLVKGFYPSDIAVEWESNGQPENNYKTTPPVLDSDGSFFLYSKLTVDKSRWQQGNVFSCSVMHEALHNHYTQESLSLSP
# light: B1 light
# notes: also called Ho Ab K326_12R
# B6: GpH7-B3 variant I336_01G/GpL16-k0 (antibody, human IgG1, kappa)
# heavy: not shown
# light: B1 light
# notes: also called Ho Ab I336_01G
# B7: GpH7-B3 variant P271_02A/GpL16-k0 (antibody, human IgG1, kappa)
# heavy: not shown
# light: B1 light
# notes: also called Ho Ab P271_02A
# B8: GpH7-B3 variant P238_15Y/GpL16-k0 (antibody, human IgG1, kappa)
# heavy: not shown
# light: B1 light
# notes: also called Ho Ab P238_15Y
# B9: GpH7-B3 variant L328_10E/GpL16-k0 (antibody, human IgG1, kappa)
# heavy: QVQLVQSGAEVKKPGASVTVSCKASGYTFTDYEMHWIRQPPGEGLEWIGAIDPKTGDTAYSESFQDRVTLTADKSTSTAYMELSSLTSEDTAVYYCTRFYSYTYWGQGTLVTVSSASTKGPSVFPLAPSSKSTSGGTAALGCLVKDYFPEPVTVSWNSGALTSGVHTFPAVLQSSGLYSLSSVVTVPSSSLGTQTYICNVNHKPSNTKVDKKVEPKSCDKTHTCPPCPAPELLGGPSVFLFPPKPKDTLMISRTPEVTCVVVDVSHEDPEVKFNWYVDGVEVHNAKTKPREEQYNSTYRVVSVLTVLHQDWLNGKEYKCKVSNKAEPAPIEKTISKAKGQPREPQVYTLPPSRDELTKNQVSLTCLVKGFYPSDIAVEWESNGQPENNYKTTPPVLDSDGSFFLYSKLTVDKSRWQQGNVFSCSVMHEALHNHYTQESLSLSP
# light: B1 light
# notes: also called Ho Ab L328_10E
# B10: GpH7-B3 variant P238_08L/GpL16-k0 (antibody, human IgG1, kappa)
# heavy: not shown
# light: B1 light
# notes: also called Ho Ab P238_08L
# B11: GpH7-B3 variant K326_15Y/GpL16-k0 (antibody, human IgG1, kappa)
# heavy: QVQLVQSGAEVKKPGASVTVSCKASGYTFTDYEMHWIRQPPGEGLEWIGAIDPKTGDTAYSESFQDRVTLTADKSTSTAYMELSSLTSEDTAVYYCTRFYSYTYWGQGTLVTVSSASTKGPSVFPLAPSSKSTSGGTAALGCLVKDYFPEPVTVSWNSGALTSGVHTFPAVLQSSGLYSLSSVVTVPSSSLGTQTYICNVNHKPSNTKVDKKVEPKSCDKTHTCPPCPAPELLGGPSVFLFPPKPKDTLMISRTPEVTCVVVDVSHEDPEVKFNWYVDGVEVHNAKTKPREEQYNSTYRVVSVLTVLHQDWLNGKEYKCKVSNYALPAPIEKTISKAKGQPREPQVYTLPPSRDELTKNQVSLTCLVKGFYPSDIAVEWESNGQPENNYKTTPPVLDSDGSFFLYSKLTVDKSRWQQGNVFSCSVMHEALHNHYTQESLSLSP
# light: B1 light
# notes: also called Ho Ab K326_15Y
# B12: GpH7-B3 variant P329_01G/GpL16-k0 (antibody, human IgG1, kappa)
# heavy: not shown
# light: B1 light
# notes: also called Ho Ab P329_01G
# B13: GpH7-B3 variant K334_06M/GpL16-k0 (antibody, human IgG1, kappa)
# heavy: not shown
# light: B1 light
# notes: also called Ho Ab K334_06M
# B14: GpH7-B3 variant Q295_11K/GpL16-k0 (antibody, human IgG1, kappa)
# heavy: not shown
# light: B1 light
# notes: also called Ho Ab Q295_11K
# B15: GpH7-B3 variant Q295_09D/GpL16-k0 (antibody, human IgG1, kappa)
# heavy: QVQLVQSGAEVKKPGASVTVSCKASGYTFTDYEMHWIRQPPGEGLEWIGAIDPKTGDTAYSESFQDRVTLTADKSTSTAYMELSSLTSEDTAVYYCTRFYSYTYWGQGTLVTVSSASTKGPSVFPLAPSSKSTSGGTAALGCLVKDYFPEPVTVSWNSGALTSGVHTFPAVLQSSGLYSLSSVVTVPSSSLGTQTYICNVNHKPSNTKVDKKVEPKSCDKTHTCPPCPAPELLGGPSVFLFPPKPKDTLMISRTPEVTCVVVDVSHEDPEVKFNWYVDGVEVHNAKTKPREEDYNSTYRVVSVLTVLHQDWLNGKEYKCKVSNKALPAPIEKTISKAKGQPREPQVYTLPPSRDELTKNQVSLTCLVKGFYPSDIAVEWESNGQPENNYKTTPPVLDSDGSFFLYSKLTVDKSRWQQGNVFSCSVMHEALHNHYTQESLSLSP
# light: B1 light
# notes: also called Ho Ab Q295_09D
# B16: GpH7-B3 variant P238_10E/GpL16-k0 (antibody, human IgG1, kappa)
# heavy: not shown
# light: B1 light
# notes: also called Ho Ab P238_10E
# B17: GpH7-B3 variant K326_18N/GpL16-k0 (antibody, human IgG1, kappa)
# heavy: not shown
# light: B1 light
# notes: also called Ho Ab K326_18N
# B18: GpH7-B3 variant P271_15Y/GpL16-k0 (antibody, human IgG1, kappa)
# heavy: not shown
# light: B1 light
# notes: also called Ho Ab P271_15Y
# B19: GpH7-B3 variant L234_10E/GpL16-k0 (antibody, human IgG1, kappa)
# heavy: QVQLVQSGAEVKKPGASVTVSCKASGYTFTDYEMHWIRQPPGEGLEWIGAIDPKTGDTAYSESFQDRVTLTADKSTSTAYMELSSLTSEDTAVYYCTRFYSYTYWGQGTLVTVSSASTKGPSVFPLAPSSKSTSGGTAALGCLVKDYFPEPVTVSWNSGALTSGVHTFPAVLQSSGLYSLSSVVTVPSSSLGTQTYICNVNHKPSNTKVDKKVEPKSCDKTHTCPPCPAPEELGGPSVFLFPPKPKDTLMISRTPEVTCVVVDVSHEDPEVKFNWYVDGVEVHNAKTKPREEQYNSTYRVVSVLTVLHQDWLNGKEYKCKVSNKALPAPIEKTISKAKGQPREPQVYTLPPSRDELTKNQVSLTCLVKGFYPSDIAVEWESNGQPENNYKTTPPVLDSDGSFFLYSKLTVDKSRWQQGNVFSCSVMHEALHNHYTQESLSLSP
# light: B1 light
# notes: also called Ho Ab L234_10E
# B20: GpH7-B3 variant L328_03V/GpL16-k0 (antibody, human IgG1, kappa)
# heavy: not shown
# light: B1 light
# notes: also called Ho Ab L328_03V
# B21: GpH7-B3 variant P271_14T/GpL16-k0 (antibody, human IgG1, kappa)
# heavy: not shown
# light: B1 light
# notes: also called Ho Ab P271_14T
# B22: GpH7-B3 variant K326_14T/GpL16-k0 (antibody, human IgG1, kappa)
# heavy: not shown
# light: B1 light
# notes: also called Ho Ab K326_14T
# B23: GpH7-B3 variant L328_19Q/GpL16-k0 (antibody, human IgG1, kappa)
# heavy: not shown
# light: B1 light
# notes: also called Ho Ab L328_19Q
# B24: GpH7-B3 variant P238_06M/GpL16-k0 (antibody, human IgG1, kappa)
# heavy: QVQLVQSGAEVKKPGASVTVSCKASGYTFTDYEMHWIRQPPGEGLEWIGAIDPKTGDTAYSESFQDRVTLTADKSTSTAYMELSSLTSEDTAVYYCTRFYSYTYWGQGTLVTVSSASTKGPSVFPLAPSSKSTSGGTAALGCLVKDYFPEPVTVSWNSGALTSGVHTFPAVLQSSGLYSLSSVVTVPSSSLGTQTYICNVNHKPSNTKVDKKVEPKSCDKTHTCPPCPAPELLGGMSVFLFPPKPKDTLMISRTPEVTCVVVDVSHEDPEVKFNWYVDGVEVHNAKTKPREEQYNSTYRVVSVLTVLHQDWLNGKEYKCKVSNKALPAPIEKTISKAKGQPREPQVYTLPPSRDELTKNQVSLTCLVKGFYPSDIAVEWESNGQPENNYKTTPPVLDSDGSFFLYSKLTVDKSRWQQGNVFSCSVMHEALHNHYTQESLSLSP
# light: B1 light
# notes: also called Ho Ab P238_06M
# B25: GpH7-B3 variant I336_04F/GpL16-k0 (antibody, human IgG1, kappa)
# heavy: not shown
# light: B1 light
# notes: also called Ho Ab I336_04F
# B26: GpH7-B3 variant P329_02A/GpL16-k0 (antibody, human IgG1, kappa)
# heavy: not shown
# light: B1 light
# notes: also called Ho Ab P329_02A
# B27: GpH7-B3 variant I336_10E/GpL16-k0 (antibody, human IgG1, kappa)
# heavy: not shown
# light: B1 light
# notes: also called Ho Ab I336_10E
# B28: GpH7-B3 variant L234_03V/GpL16-k0 (antibody, human IgG1, kappa)
# heavy: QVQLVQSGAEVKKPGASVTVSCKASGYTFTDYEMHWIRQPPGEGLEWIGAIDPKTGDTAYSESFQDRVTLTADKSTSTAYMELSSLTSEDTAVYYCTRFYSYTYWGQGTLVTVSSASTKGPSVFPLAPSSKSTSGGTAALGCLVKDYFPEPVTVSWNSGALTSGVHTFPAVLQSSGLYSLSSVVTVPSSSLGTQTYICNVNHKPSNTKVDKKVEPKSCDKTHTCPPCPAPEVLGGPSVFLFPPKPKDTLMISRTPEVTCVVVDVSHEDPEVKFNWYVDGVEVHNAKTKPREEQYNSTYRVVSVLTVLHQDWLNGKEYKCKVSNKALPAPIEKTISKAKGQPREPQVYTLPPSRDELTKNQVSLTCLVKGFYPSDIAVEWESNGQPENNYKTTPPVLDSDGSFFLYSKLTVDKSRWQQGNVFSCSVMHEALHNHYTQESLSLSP
# light: B1 light
# notes: also called Ho Ab L234_03V
# B29: GpH7-B3 variant P271_03V/GpL16-k0 (antibody, human IgG1, kappa)
# heavy: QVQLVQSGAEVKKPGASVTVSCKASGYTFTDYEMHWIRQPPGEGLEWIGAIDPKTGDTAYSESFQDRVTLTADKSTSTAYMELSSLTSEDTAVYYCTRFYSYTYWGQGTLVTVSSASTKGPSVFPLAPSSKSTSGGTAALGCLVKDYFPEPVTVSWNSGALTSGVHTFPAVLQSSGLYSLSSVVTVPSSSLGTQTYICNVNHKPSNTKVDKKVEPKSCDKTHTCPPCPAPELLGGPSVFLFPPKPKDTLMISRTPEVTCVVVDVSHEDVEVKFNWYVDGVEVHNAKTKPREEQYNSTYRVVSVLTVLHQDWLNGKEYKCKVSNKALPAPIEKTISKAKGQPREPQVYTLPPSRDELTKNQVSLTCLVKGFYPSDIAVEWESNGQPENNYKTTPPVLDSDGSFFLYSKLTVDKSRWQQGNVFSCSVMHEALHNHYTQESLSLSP
# light: B1 light
# notes: also called Ho Ab P271_03V
# B30: GpH7-B3 variant K334_12R/GpL16-k0 (antibody, human IgG1, kappa)
# heavy: not shown
# light: B1 light
# notes: also called Ho Ab K334_12R
# B31: GpH7-B3 variant L234_07I/GpL16-k0 (antibody, human IgG1, kappa)
# heavy: not shown
# light: B1 light
# notes: also called Ho Ab L234_07I
# B32: GpH7-B3 variant I336_02A/GpL16-k0 (antibody, human IgG1, kappa)
# heavy: not shown
# light: B1 light
# notes: also called Ho Ab I336_02A
# B33: GpH7-B3 variant L234_04F/GpL16-k0 (antibody, human IgG1, kappa)
# heavy: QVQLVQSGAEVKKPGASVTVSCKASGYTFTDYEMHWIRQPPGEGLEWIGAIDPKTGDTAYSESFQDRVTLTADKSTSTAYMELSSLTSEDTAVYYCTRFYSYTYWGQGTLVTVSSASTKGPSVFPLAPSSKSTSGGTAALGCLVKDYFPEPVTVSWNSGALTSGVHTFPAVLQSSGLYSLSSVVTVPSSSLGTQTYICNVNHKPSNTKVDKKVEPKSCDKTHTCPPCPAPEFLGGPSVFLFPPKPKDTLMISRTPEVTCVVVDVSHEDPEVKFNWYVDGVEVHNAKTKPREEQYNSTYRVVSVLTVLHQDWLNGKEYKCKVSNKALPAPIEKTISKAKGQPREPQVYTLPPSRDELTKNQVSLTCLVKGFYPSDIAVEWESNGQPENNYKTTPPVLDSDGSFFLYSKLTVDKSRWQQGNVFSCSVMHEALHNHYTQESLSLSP
# light: B1 light
# notes: also called Ho Ab L234_04F
# B34: GpH7-B3 variant I336_03V/GpL16-k0 (antibody, human IgG1, kappa)
# heavy: not shown
# light: B1 light
# notes: also called Ho Ab I336_03V
# B35: GpH7-B3 variant P271_16H/GpL16-k0 (antibody, human IgG1, kappa)
# heavy: not shown
# light: B1 light
# notes: also called Ho Ab P271_16H
# B36: GpH7-B3 variant L328_20W/GpL16-k0 (antibody, human IgG1, kappa)
# heavy: not shown
# light: B1 light
# notes: also called Ho Ab L328_20W
# B37: GpH7-B3 variant K334_20W/GpL16-k0 (antibody, human IgG1, kappa)
# heavy: not shown
# light: B1 light
# notes: also called Ho Ab K334_20W
# B38: GpH7-B3 variant I332_12R/GpL16-k0 (antibody, human IgG1, kappa)
# heavy: not shown
# light: B1 light
# notes: also called Ho Ab I332_12R
# B39: GpH7-B3 variant P238_04F/GpL16-k0 (antibody, human IgG1, kappa)
# heavy: not shown
# light: B1 light
# notes: also called Ho Ab P238_04F
# B40: GpH7-B3 variant I336_06M/GpL16-k0 (antibody, human IgG1, kappa)
# heavy: not shown
# light: B1 light
# notes: also called Ho Ab I336_06M
# B41: GpH7-B3 variant P238_03V/GpL16-k0 (antibody, human IgG1, kappa)
# heavy: not shown
# light: B1 light
# notes: also called Ho Ab P238_03V
# B42: GpH7-B3 variant L234_15Y/GpL16-k0 (antibody, human IgG1, kappa)
# heavy: not shown
# light: B1 light
# notes: also called Ho Ab L234_15Y
# B43: GpH7-B3 variant L328_14T/GpL16-k0 (antibody, human IgG1, kappa)
# heavy: not shown
# light: B1 light
# notes: also called Ho Ab L328_14T
# B44: GpH7-B3 variant L234_06M/GpL16-k0 (antibody, human IgG1, kappa)
# heavy: not shown
# light: B1 light
# notes: also called Ho Ab L234_06M
# Target: T1, FcγRIa (human, UniProt P12314 16-292)
# T1 construct: extracellular domain; also called FcgRI; 1a
# Assay: SPR (Biacore); Ho Ab relative to HoCon Ab = 100
# Procedure: Analysis of interaction between objective antibody and the FcγR was carried out using Biacore T100 (GE Healthcare). HBS-EP+ (GE Healthcare) was used as the running buffer, and the measurement temperature was set to 25° C. Chips produced by immobilizing the antigen peptide by the amine coupling method to a Series S Sencor Chip CM5 (GE Healthcare), or alternatively, chips produced by allowing preliminarily biotinylated antigen peptides to interact with and immobilize onto a Series S Sensor Chip SA (certified) (GE Healthcare) were used. Antibodies of interest were captured onto an antigen peptide-immobilized chip, and allowed to interact to each FcγR diluted with running buffer. To regenerate and repeatedly use the chip, the antibodies captured on the chip were washed off by reacting 10 mM glycine-HCl, pH 1.5.
# T1 sequence (P12314 16-292): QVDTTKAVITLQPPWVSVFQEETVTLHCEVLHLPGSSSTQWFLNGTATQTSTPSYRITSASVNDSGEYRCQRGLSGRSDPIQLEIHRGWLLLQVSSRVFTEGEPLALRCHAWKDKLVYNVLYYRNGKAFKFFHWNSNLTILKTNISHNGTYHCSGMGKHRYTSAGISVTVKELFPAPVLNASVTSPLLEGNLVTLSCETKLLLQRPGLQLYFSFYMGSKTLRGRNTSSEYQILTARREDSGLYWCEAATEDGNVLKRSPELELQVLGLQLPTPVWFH
row,Ho/Con_1a,Binder
1,106 % of control,B1
2,107 % of control,B2
3,104 % of control,B3
4,101 % of control,B4
5,100 % of control,B5
6,104 % of control,B6
7,102 % of control,B7
8,99 % of control,B8
9,101 % of control,B9
10,100 % of control,B10
11,101 % of control,B11
12,89.5 % of control,B12
13,104 % of control,B13
14,99.9 % of control,B14
15,96.8 % of control,B15
16,91.8 % of control,B16
17,102 % of control,B17
18,99.4 % of control,B18
19,79.6 % of control,B19
20,99.2 % of control,B20
21,99.5 % of control,B21
22,103 % of control,B22

row,Ho/Con_1a,Binder
1,99.3 % of control,B23
2,100 % of control,B24
3,104 % of control,B25
4,98.2 % of control,B26
5,107 % of control,B27
6,98.2 % of control,B28
7,102 % of control,B29
8,102 % of control,B30
9,99.5 % of control,B31
10,103 % of control,B32
11,93.5 % of control,B33
12,105 % of control,B34
13,99.4 % of control,B35
14,99.9 % of control,B36
15,104 % of control,B37
16,93.2 % of control,B38
17,98.7 % of control,B39
18,104 % of control,B40
19,97.9 % of control,B41
20,98.9 % of control,B42
21,98.6 % of control,B43
22,96.5 % of control,B44

# Source: patent US20150344570A1 (published 2015)
